Results on 5 molecules are retold here after patent publication US7276337B2, “Compositions and methods for visual ribonuclease detection assays” (Integrated DNA Technologies, Inc., priority 2000, dated 2007).

Sequences and labels used below:
B1: RNase 1: commercial enzyme reagent from Ambion, tested for RNase activity (protein, UniProt P21338 24-268, looked up)
Ribonuclease I: LALQAKQYGDFDRYVLALSWQTGFCQSQHDRNRNERDECRLQTETTNKADFLTVHGLWPGLPKSVAARGVDERRWMRFGCATRPIPNLPEARASRMCSSPETGLSLETAAKLSEVMPGAGGRSCLERYEYAKHGACFGFDPDAYFGTMVRLNQEIKESEAGKFLADNYGKTVSRRDFDAAFAKSWGKENVKAVKLTCQGNPAYLTEIQISIKADAINAPLSANSFLPQPHPGNCGKTFVIDKAGY
B2: Bam HI: commercial enzyme from New England Biolabs, sold as RNase-free (protein, UniProt P23940 1-213, looked up)
Type II restriction enzyme …: MEVEKEFITDEAKELLSKDKLIQQAYNEVKTSICSPIWPATSKTFTINNTEKNCNGVVPIKELCYTLLEDTYNWYREKPLDILKLEKKKGGPIDVYKEFIENSELKRVGMEFETGNISSAHRSMNKLLLGLKHGEIDLAIILMPIKQLAYYLTDRVTNFEELEPYFELTEGQPFIFIGFNAEAYNSNVPLIPKGSDGMSKRSIKKWKDKVENK
B3: Proteinase K: commercial enzyme reagent from Ambion, sold as RNase-free (protein, UniProt P06873 106-384, looked up)
Proteinase K: AAQTNAPWGLARISSTSPGTSTYYYDESAGQGSCVYVIDTGIEASHPEFEGRAQMVKTYYYSSRDGNGHGTHCAGTVGSRTYGVAKKTQLFGVKVLDDNGSGQYSTIIAGMDFVASDKNNRNCPKGVVASLSLGGGYSSSVNSAAARLQSSGVMVAVAAGNNNADARNYSPASEPSVCTVGASDRYDRRSSFSNYGSVLDIFGPGTSILSTWIGGSTRSISGTSMATPHVAGLAAYLMTLGKTTAASACRYIADTANKGDLSNIPFGTVNLLAYNNYQA
B4: RNase A: commercial enzyme reagent from Ambion, tested for RNase activity (protein, UniProt P61823 27-150, looked up)
Ribonuclease pancreatic: KETAAAKFERQHMDSSTSAASSSNYCNQMMKSRNLTKDRCKPVNTFVHESLADVQAVCSQKNVACKNGQTNCYQSYSTMSITDCRETGSSKYPNCAYKTTQANKHIIVACEGNPYVPVHFDASV
B5: RNase T1: commercial enzyme reagent from Ambion, tested for RNase activity (protein, UniProt P00651 27-130, looked up)
Guanyl-specific ribonuclease …: ACDYTCGSNCYSSSDVSTAQAAGYQLHEDGETVGSNSYPHKYNNYEGFDFSVSSPYYEWPILSSGDVYSGGSPGADRVVFNENNQLAGVITHTGASGNNFVECT

For this data set, the system named is Substrate oligonucleotide SEQ ID NO:30. In words: RNase testing of commercially obtained reagents, visual detection. The arrangement: key: +++ = maximum intensity; ++ = moderate intensity; + = faint but above background; − = negative (identical to background). Type of data set: biochemical. The following applies: reagent diluted 1:10 with Assay Buffer, 50 pmoles Substrate SEQ ID NO:30, 60 minutes at 37° C., UV. How it is done: Enzymes were obtained from New England Biolabs (NEB) or Ambion as indicated. Test sample (10 ul) was mixed with 1× buffer (90 ul) for a final volume of 100 ul with 50 pmoles of Substrate SEQ ID NO:30 in 0.5 ml RNase-free microtubes. Assay Mixes were incubated 60 minutes at 37° C. and visually examined under UV excitation for fluorescence emission. After scoring for results, 1 ul (1 ug) of RNase A was added to each tube. The Assay was incubated an additional 5 minutes at 37° C. and re-scored. The addition of RNase A represents a control for the absence of an Assay inhibitor and validates negative results. The “plus RNase A” control was omitted whenever the primary assay was already positive.
Table 9: RNase testing of commercially available reagents. A series of commercially available reagents were diluted 1:10 with Assay Buffer to a final volume of 100 ul. An RNase detection assay was performed using the method of the invention with Substrate oligonucleotide SEQ ID NO:30. Reactions were examined for fluorescence emission by visual inspection using an ultraviolet (UV) light source for excitation. Results were scored as +++, ++, +, or − based on relative signal intensity. As a control, RNase A (1 ug) was added to negative reactions and the Assay was re-scored. ND=not done.
For the molecule B1, the “Assay Results (RNase activity in reagent, relative signal intensity)” value is listed as “+++”.

Consider B2, for which the “Assay Results (RNase activity in reagent, relative signal intensity)” value is recorded as “−”.

Turning to B3, the “Assay Results (RNase activity in reagent, relative signal intensity)” value was “−”.

For the molecule B4, the “Assay Results (RNase activity in reagent, relative signal intensity)” value is reported as “+++”.

B5: the “Assay Results (RNase activity in reagent, relative signal intensity)” value is “+++”.
